Measurements from article doi:10.1101/2023.10.26.564242, “KIF1C activates and extends dynein movement through the FHF cargo adaptor” (bioRxiv, 2023).

T1: full-length KIF1C-GFP (human, UniProt O43896 1-1103)
T1 construct: KIF1C, human, full length; also called KFL
T1 sequence (looked up): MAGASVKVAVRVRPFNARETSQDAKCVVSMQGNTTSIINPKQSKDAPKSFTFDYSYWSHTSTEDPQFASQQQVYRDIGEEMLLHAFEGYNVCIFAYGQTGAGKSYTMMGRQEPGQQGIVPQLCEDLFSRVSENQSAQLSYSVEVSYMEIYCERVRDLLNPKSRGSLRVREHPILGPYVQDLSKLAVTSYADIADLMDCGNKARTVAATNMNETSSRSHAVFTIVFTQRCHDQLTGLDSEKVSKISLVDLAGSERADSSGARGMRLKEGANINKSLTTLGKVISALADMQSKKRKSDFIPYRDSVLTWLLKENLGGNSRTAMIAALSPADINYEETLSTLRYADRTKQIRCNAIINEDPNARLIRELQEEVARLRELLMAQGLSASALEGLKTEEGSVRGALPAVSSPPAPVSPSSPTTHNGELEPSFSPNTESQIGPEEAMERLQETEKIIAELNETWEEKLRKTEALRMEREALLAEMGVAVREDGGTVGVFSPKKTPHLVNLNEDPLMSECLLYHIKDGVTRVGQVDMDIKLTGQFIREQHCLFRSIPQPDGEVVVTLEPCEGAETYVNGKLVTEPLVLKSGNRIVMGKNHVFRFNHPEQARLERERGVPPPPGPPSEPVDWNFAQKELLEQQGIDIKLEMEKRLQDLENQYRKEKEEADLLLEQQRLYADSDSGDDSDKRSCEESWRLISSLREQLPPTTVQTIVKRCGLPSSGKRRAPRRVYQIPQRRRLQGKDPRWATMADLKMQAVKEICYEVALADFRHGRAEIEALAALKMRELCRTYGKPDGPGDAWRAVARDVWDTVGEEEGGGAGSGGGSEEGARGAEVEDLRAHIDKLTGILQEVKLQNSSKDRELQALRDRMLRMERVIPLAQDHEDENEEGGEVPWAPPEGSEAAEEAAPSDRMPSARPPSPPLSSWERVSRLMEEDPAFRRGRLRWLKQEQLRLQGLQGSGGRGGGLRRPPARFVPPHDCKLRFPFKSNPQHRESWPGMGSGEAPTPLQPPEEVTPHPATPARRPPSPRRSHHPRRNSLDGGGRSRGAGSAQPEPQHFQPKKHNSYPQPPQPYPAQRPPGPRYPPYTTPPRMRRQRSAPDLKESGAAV

T2: HOOK3 residues 451-718 (as in FH^451-718F) (human, UniProt Q86VS8 451-718)
T2 construct: The HOOK3 chain of m12, written alone for the row of two; also called HOOK3 C-terminal fragment; not shown: Strep II, N-terminal, cleaved
T2 sequence (looked up): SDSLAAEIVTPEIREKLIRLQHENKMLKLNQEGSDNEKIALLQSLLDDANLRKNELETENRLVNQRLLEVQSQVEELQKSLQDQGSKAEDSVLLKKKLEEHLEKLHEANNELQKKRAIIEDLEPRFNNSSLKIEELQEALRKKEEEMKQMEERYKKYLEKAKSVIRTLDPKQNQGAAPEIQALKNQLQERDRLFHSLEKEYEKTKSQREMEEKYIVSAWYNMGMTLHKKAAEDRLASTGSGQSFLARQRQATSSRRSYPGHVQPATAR

T3: HOOK3, full length (as in full-length FHF) (human, UniProt Q86VS8 1-718)
T3 construct: HOOK3, human, full length; gene codon optimised for Sf9; The HOOK3 chain of full-length FHF, written alone for the rows of two; not shown: Strep II, N-terminal, cleaved
T3 sequence (looked up): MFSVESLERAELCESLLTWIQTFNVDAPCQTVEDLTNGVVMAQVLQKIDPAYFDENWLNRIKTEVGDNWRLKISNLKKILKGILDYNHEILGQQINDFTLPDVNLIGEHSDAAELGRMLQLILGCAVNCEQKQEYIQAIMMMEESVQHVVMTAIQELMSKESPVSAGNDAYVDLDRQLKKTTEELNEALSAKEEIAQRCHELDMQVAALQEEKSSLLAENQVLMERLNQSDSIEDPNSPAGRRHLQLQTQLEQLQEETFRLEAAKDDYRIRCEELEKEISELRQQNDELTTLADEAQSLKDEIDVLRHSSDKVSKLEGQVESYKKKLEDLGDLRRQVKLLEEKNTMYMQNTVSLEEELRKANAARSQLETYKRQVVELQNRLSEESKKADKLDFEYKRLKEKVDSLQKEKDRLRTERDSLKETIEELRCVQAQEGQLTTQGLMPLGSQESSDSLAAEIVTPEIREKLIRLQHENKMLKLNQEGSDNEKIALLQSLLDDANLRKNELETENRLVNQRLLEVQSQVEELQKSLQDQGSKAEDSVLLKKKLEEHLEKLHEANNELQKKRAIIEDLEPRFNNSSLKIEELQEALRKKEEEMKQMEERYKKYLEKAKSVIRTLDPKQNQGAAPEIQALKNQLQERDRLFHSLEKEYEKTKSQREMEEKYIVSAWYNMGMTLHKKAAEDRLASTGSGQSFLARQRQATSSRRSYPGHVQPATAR

B1: GST-KIF1C stalk (residues 642-922) (domain or fragment, human, UniProt O43896 642-922, looked up)
chain: EMEKRLQDLENQYRKEKEEADLLLEQQRLYADSDSGDDSDKRSCEESWRLISSLREQLPPTTVQTIVKRCGLPSSGKRRAPRRVYQIPQRRRLQGKDPRWATMADLKMQAVKEICYEVALADFRHGRAEIEALAALKMRELCRTYGKPDGPGDAWRAVARDVWDTVGEEEGGGAGSGGGSEEGARGAEVEDLRAHIDKLTGILQEVKLQNSSKDRELQALRDRMLRMERVIPLAQDHEDENEEGGEVPWAPPEGSEAAEEAAPSDRMPSARPPSPPLSSWE
notes: also called KS; Ks; source: E. coli SoluBL21, purified (Ni-NTA, Superdex 200); not shown: GST, N-terminal, kept
B2: HOOK3-SNAPf labelled with Alexa 647 (natural protein, human, UniProt Q86VS8 1-718, looked up)
chain: T3 sequence (looked up)
modifications: benzylguanine conjugated fluorophore (Alexa 647) on the SNAPf domain
notes: HOOK3, amplified from a human cDNA library, full length; pFastBacM13-8xHis-ZZ-LTLT-HOOK3-SNAPf; An untagged full-length HOOK3 from the same backbone was used in assays with Lis1; source: Sf9 (baculovirus), purified (Ni-NTA, IgG Sepharose, TEV cleavage); not shown: 8xHis, N-terminal, cleaved; ZZ, N-terminal, cleaved; SNAPf, C-terminal, kept
B3: HOOK3 C-terminal fragment (residues 571-718) (domain or fragment, human, UniProt Q86VS8 571-718, looked up)
chain: DLEPRFNNSSLKIEELQEALRKKEEEMKQMEERYKKYLEKAKSVIRTLDPKQNQGAAPEIQALKNQLQERDRLFHSLEKEYEKTKSQREMEEKYIVSAWYNMGMTLHKKAAEDRLASTGSGQSFLARQRQATSSRRSYPGHVQPATAR
notes: The HOOK3 chain of the FHF cryo-EM construct, written alone for the rows of two; not shown: Strep II, N-terminal, cleaved
B4: GST-KIF1C stalk 674-922 (domain or fragment, human, UniProt O43896 674-922, looked up)
chain: SDSGDDSDKRSCEESWRLISSLREQLPPTTVQTIVKRCGLPSSGKRRAPRRVYQIPQRRRLQGKDPRWATMADLKMQAVKEICYEVALADFRHGRAEIEALAALKMRELCRTYGKPDGPGDAWRAVARDVWDTVGEEEGGGAGSGGGSEEGARGAEVEDLRAHIDKLTGILQEVKLQNSSKDRELQALRDRMLRMERVIPLAQDHEDENEEGGEVPWAPPEGSEAAEEAAPSDRMPSARPPSPPLSSWE
notes: also called KIF1CS2; source: E. coli SoluBL21, purified (Ni-NTA, Superdex 200); not shown: GST, N-terminal, kept

Columns and labels:
[1] = target: B2; assay: cell-based or functional assay
[2] = target: T4, full-length FTS-HOOK3-FHIP1B (FHF) complex (human, UniProt Q9H8T0 1-292; Q86VS8 1-718; Q8N612 1-972); assay: cell-based or functional assay
[3] = target: T4, full-length FTS-HOOK3-FHIP1B (FHF) …; assay: mass photometry; full-length FHF with KIF1C stalk, diluted to 100 nM in GF150; Refeyn TwoMP; details: both partners purified
full-length KIF1C-GFP = target: T1, full-length KIF1C-GFP; assay: single-molecule TIRF co-movement on microtubules; TMR-dynein, dynactin, HOOK3-Alexa 647 and KIF1C-GFP mixed (200 nM dynein, 200 nM dynactin, 1600 nM adaptor, 180 nM KIF1C-GFP, ~75 mM KCl), diluted and imaged on taxol microtubules at 25 °C; controls with single components omitted; details: both partners purified
[4] = target: the molecule itself; assay: cryo-EM structure; FHF with full-length FTS and FHIP1B and HOOK3 571-718, 0.9 mg/ml with 0.1% CHAPSO or 0.005% Igepal; 3.2 Å reconstruction
GST-KIF1C stalk 674-922 = target: B4; assay: cross-linking; cross-linking mass spectrometry with 10 mM EDC or 5 mM DSSO, room temperature, 60 minutes; full-length FHF or FH^571-718F bound to KIF1C stalk 674-922; details: both partners purified
[5] = target: T2, HOOK3 residues 451-718 (as in …); assay: cryo-EM structure; FH^451-718F bound to GST-KIF1C stalk 674-922; low resolution at the KIF1C density; details: both partners purified
[6] = target: T3, HOOK3, full length (as in full-length …); assay: cross-linking; cross-linking mass spectrometry with 10 mM EDC or 5 mM DSSO, room temperature, 60 minutes; full-length FHF or FH^571-718F bound to KIF1C stalk 674-922; details: both partners purified

T4 sequence (Q9H8T0 whole entry, chain 1 of 2): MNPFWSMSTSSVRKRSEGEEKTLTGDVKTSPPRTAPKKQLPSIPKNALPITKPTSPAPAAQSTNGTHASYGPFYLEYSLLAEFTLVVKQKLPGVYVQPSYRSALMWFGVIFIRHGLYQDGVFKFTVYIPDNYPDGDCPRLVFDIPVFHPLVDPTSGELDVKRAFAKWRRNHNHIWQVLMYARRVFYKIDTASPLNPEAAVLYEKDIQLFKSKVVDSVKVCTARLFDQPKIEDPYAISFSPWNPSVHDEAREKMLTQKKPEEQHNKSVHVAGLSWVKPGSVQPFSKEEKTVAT
T4 sequence (Q8N612 whole entry, chain 3 of 2): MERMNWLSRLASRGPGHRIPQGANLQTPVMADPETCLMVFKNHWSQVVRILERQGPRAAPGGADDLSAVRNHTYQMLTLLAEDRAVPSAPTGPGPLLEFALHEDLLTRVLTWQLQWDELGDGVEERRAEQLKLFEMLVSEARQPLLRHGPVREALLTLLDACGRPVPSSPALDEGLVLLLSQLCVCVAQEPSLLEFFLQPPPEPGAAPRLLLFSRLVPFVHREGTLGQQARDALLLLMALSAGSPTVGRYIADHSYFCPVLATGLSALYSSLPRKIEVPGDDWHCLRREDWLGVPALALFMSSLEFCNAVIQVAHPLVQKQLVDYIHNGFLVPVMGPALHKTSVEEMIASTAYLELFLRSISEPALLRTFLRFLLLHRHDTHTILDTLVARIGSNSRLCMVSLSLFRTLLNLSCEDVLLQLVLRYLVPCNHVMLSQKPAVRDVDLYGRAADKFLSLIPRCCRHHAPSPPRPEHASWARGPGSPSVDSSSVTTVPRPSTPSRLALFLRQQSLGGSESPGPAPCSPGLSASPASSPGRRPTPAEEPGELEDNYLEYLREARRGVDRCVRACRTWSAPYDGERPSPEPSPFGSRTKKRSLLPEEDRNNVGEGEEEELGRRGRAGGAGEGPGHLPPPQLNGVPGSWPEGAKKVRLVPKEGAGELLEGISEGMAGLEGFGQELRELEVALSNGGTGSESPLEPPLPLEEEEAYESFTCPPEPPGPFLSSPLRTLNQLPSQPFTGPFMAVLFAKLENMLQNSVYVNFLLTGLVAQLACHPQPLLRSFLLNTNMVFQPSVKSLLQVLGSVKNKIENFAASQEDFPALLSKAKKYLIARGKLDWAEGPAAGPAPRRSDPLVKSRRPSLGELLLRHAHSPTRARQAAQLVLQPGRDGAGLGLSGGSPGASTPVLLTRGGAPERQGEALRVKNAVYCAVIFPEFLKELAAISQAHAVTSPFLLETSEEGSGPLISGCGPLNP

## B1
[1]
  dynein microtubule recruitment (TMR-dynein landing rate, TIRF) with dynactin, HOOK3 and Lis1, with against without the KIF1C stalk construct (GST-KIF1C642-922-GFP in this assay): 2.6 fold
[2]
  processive events of dynein-dynactin-FHF (TIRF), with KIF1C stalk against a DDFHF control: ~3.7 fold
[3]
  stoichiometry N: 1 dimeric KIF1C stalk per FHF

## B2
full-length KIF1C-GFP
  binding result: binds

## B3
[4]
  binding result: binds
GST-KIF1C stalk 674-922
  binding result: binds

## B4
[5]
  binding result: binds
[6]
  binding result: binds
